Data on three molecules can be found in US20110104145A1 (published 2011).

The target of assay [1] is CD89 (Fc receptor for IgA) on polymorphonuclear cells (human, UniProt P24071 22-287). The assay is described as follows: cell-based or functional assay.
Assay [2] addresses IgA (monomeric serum IgA, coated on beads or plates) (human, UniProt P01876-1 1-353). The assay is described as follows: cell-based or functional assay.

Where no end group is shown, it is not given here.

CD89 (Fc receptor for IgA) on polymorphonuclear cells, sequence (P24071 22-287): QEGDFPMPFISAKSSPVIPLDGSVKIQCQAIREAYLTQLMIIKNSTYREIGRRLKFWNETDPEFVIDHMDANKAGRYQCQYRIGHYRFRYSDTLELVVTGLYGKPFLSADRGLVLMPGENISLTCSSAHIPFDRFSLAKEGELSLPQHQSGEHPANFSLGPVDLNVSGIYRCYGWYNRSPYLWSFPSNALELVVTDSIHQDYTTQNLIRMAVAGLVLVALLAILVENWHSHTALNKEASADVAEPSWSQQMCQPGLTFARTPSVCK
IgA (monomeric serum IgA, coated on beads or plates), sequence (P01876 other isoform, or with tags, fused parts or gaps): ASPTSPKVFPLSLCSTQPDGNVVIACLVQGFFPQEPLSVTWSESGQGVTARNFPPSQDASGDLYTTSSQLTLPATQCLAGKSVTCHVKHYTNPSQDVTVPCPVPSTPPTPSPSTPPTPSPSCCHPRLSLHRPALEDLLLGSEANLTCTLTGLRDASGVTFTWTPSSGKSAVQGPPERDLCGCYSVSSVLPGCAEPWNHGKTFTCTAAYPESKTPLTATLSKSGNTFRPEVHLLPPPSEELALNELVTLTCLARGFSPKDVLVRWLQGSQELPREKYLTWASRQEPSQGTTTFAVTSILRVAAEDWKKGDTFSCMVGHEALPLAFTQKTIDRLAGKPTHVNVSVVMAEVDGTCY

As for CSMVGHEALPLAFTQKC-NH2 (cysteine pairing not given here) [peptide PEO-47 mP2#2,3], in assay [1], the “percentage blocking (polymorphonuclear cells bound to IgA-coated beads, 2-D migration assay)” value is no more than 20%.
The same measure, in the same setting: next, HEALPLAFTQK-NH2 [peptide IgA CH3]: no more than 18%.
As to REIGRRLKFWNETDP [Peptide Fc alpha 113], the “percentage blocking (polymorphonuclear cells bound to IgA-coated beads, 2-D migration assay)” value in assay [2] was no more than 19%.
